How the values were obtained:
[1] = target: T1, recombinant human GPC3 (rhGPC3) fluorescently conjugated to DyLight 650 (human, UniProt P51654 25-559, limits assumed, fluorescently conjugated to DyLight 650); test: flow cytometry; transduced T cells stained with rhGPC3-DyLight 650 at 1:200; gated live CD3+
T1 construct: Soluble staining reagent for flow cytometry, diluted 1:200; also called Glypican-3
Description: (§1) Similar to the previous trials, CD3⁺ cells were isolated from primary human peripheral blood mononuclear cells (PBMCs) and transduced with the GPC3 CAR constructs above in the presence of polybrene and at a multiplicity of infection of two, based on expression titer in Jurkat cells. At the end of manufacturing, cells were frozen down in Cryostor® CS5 and stored in liquid nitrogen until thawing. Upon thawing, cells were rested in T cell culture medium overnight with 100 UI/mL IL-2, washed, and stained with Live/Dead™ Violet diluted at 1:1000, recombinant human GPC3 (rhGPC3) fluorescently conjugated to DyLight™ 650 diluted at 1:200, and anti-CD3 BV650 at 1:100 in PBS for 30 min at 4° C. The DNA of a pellet of 1×10⁵ cells was extracted in QuickExtract™ Buffer, frozen, and used to measure average vector copy number (VCN) by droplet digital PCR quantifying frequency of integrated virus per cell. Percentage CAR+ cells are defined as percentage of cells staining with rhGPC3 amongst Live/Dead™ negative, CD3⁺ positive cells, and Mean Fluorescence Intensity (MFI) of CAR⁺, and Vector copy number (VCN) are given in the example. […] Construct CAR 1 also has higher MFI of CAR⁺ cells, which could indicate more efficient expression or higher affinity of the CAR to rhGPC3.

[2] = target: T1, recombinant human GPC3 (rhGPC3) …; test: flow cytometry; rhGPC3-DyLight 650 staining of CAR+ T cells
Description: as §1

[3] = target: TGF-β Receptor Type II (TGF-βRII), endogenous wild-type, in primary human T cells (human, UniProt P37173 23-567); test: cell-based or functional assay
Sequence of TGF-β Receptor Type II (TGF-βRII), endogenous wild-type, in primary human T cells (P37173 23-567): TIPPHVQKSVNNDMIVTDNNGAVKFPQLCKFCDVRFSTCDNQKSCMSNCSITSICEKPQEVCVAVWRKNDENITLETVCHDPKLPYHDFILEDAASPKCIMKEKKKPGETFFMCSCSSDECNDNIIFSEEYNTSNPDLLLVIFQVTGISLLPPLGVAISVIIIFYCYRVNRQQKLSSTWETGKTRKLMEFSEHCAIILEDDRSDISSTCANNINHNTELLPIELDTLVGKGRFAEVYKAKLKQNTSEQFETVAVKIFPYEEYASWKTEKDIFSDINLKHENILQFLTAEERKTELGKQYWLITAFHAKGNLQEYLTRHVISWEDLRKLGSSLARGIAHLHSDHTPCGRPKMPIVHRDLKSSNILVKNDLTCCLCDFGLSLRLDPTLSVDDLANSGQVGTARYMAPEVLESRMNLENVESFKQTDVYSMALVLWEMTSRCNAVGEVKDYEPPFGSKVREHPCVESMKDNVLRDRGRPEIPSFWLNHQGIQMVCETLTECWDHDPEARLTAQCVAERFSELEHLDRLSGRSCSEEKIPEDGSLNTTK

T1 sequence (P51654 25-559 limits assumed): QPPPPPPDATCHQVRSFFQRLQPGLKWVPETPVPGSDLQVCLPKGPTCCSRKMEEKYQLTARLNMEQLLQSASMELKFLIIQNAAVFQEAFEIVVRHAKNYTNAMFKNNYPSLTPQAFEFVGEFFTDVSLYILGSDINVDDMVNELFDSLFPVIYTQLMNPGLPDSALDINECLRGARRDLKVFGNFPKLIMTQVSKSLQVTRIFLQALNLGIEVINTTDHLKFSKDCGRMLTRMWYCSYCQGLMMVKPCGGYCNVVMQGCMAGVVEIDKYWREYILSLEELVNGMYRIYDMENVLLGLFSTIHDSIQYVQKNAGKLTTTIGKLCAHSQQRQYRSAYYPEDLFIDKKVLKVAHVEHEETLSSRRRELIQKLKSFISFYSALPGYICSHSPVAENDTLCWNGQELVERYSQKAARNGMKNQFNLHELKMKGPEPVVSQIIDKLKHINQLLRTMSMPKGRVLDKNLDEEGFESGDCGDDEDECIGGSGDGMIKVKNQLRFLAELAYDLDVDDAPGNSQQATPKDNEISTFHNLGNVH

| Binder | % CAR + (percentage of cells staining with rhGPC3) [1] [%] | MFI CAR + [2] [MFI] | fold less induction of pSMAD2 and pSMAD3 versus PSMA CAR only, TGF-β1 stimulated T cells [3] [fold] | fold less induction of pSMAD2 versus CD19 CAR only, TGF-β1 stimulated T cells [3] [fold] | fold less induction of pSMAD2 versus GPC3 CAR only, 4-1BB co-stimulation, TGF-β1 stimulated T cells [3] [fold] | fold less induction of pSMAD3 versus CD19 CAR only, TGF-β1 stimulated T cells [3] [fold] | fold less induction of pSMAD3 versus GPC3 CAR only, 4-1BB co-stimulation, TGF-β1 stimulated T cells [3] [fold] |
| --- | --- | --- | --- | --- | --- | --- | --- |
| Construct CAR 1 (GPC3 scFv + 4-1BB intracellular domain + CD3ζ intracellular domain), GPC3-CAR encoded by the codon-optimized sequence of SEQ ID NO: 51 (other, Chimeric antigen receptor expressed on transduced primary human CD3+ T cells; also called GPC3-CAR construct) DIVMTQSPDSLAVSLGERATINCKSSQSLLYSSNQKNYLAWYQQKPGQPPKLLIYWASSRESGVPDRFSGSGSGTDFTLTISSLQAEDVAVYYCQQYYNYPLTFGQGTKLEIKGSTSGSGKPGSGEGSTKGEVQLVESGGGLVQPGGSLRLSCAASGFTFNKNAMNWVRQAPGKGLEWVGRIRNKTNNYATYYADSVKARFTISRDDSKNSLYLQMNSLKTEDTAVYYCVAGNSFAYWGQGTLVTVSSGSTTTPAPRPPTPAPTIASQPLSLRPEACRPAAGGAVHTRGLDFACDIYIWAPLAGTCGVLLLSLVITLYCKRGRKKLLYIFKQPFMRPVQTTQEEDGCSCRFPEEEEGGCELRVKFSRSADAPAYQQGQNQLYNELNLGRREEYDVLDKRRGRDPEMGGKPRRKNPQEGLYNELQKDKMAEAYSEIGMKGERRRGKGHDGLYQGLSTATKDTYDALHMQALPPR | 93.4 | 21100 | – | – | – | – | – |
| engineered, dominant-negative TGF-β receptor Type 1 (DN TGF-βRI) construct of SEQ ID NO: 10 (receptor) LQCFCHLCTKDNFTCVTDGLCFVSVTETTDKVIHNSMCIAEIDLIPRDRPFVCAPSSKTGSVTTTYCCNQDHCNKIELPTTVKSSPGLGPVELAAVIAGPVCFVCISLMLMVYIRVNRQ | – | – | ~2 | ~4 | ~3 | ~2 | ~1.3 |

Reference: US20250109182A1 (KITE PHARMA, published 2025)
